The results in this text go back to PMC7062162.

Assay [1] has as its target A6E peptide-DR1 complex (human).
Assay [2] addresses A6G peptide-DR1 complex (human).
The target of assay [3] is I9E peptide-DR1 complex (human). Put plainly: fluorescence polarisation; real-time fluorescence anisotropy of Alexa Fluor 488-peptide leaving DR1 (50 nM complex) with titrated HLA-DM (up to 90 μM) and 20 μM unlabeled competitor peptide; 250 mM citrate, 150 mM NaCl, pH 5.0, 37 °C; kobs fitted to a Michaelis-Menten model, Km taken as Kd of DM for the pMHCII (OPT1-DR1: initial velocities, Lineweaver-Burk).

Assay [4] deals with 0410 Y1A peptide-DR1 complex (human).
The target in assay [5] is OPT1 Y1A peptide-DR1 complex (human).
The target of assay [6] is Y1I peptide-DR1 complex (human).
Assay [7] has as its target L4G′ peptide-DR1 complex (human).
Assay [8] deals with L4G peptide-DR1 complex (human).
Assay [9] concerns the target L4R peptide-DR1 complex (human).

Consider “soluble recombinant HLA-DM (DMA*0101/DMB*0101) (complex)”, for which, in [1], the kcat, fold change against OPT1-DR1 (A6E) is > 200 fold. In addition, the kcat, fold change against the A6G complex (G6E) in [1] is > 100 fold. Moreover, the kcat, fold change against OPT1-DR1 in assay [2] was 2 fold; in assay [5], > 2600 fold; in [8], > 120 fold; in [9] it was > 1300 fold. The fold decrease in Km against the homologous complex with Ile at P9 in assay [3] turned out to be 9 fold. Also, the kcat, fold change against the 0410 complex in assay [4] was found to be 8 fold. Moreover, in assay [6], the kcat, fold change against the homologous complex with Tyr at P1 was found to be 18 fold. The kcat, fold change against the I9E complex in [7] was 510 fold.
